Numbering of substitutions follows the chain as printed. One block for each binder: values may come before it.
Legend:
[1] = target: T1, IL6R on the cell-surface of TF-1 cells (UniProt P08887 20-468, limits assumed); assay: cell-based or functional assay
T1 sequence (looked up): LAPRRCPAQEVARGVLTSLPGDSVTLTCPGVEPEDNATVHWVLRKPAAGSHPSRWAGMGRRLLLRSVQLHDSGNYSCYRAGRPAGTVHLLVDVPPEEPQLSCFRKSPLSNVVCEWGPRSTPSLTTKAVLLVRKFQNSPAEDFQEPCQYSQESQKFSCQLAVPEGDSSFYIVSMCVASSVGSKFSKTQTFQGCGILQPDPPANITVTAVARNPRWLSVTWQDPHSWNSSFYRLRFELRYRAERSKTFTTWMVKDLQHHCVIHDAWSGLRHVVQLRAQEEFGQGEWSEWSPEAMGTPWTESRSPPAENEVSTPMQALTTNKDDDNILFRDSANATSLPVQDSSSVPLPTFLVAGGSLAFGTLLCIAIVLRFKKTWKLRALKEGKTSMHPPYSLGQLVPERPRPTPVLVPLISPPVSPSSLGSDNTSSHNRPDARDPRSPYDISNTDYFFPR

human IL6R [2] = target: T2, human IL6R (human, UniProt P08887 20-358, limits assumed); assay: SPR (Biacore), purified Nanobody
T2 construct: Antigen of the Biacore experiments
T2 sequence (looked up): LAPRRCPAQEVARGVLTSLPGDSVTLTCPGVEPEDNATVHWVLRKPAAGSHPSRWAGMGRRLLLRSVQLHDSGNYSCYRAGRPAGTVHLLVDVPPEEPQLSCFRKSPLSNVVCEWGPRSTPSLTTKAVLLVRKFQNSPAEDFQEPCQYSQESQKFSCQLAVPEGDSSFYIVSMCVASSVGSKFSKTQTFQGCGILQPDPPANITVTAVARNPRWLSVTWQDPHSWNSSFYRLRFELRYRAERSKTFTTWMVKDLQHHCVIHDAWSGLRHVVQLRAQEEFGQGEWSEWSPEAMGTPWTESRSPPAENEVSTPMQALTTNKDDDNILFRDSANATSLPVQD
Method: Binding curves at different concentrations of purified Nanobody were recorded on Biacore and used to calculate values for ka, kd and Kd (Table B-4).

human IL6R [3] = target: T2, human IL6R; assay: SPR (Biacore), periplasmic extract
Method: Selection outputs were analyzed by picking individual colonies and growing them overnight in 1 ml 2×YT (Yeast Tryptone) medium+100 ug/ml Carbenicillin at 37 C. Nanobody containing periplasmic extracts were prepared, diluted 1/10 in PBS and subsequently tested for antigen binding in ELISA. Clones with the highest ELISA signals were sequenced and analyzed on Biacore. […] The off-rate of the best clone from the CDR3 library was 7×10e-4 s-1.

[4] = target: soluble IL6R in cynomolgus monkey plasma (cynomolgus monkey, UniProt A0A2K5WN54 60-396); assay: cyno plasma potency assay: competition ELISA, inhibition of human IL6 binding to soluble IL6R
soluble IL6R in cynomolgus monkey plasma, sequence (A0A2K5WN54 entry or part of it): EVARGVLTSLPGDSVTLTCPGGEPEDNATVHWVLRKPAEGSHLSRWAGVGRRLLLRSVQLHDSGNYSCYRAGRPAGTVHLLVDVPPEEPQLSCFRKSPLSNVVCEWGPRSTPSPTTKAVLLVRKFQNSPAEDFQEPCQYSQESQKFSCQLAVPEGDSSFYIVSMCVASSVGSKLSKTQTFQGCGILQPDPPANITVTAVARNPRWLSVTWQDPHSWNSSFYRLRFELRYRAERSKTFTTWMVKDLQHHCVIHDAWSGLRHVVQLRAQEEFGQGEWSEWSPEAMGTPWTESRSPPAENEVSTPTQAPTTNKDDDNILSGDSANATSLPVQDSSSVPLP

[5] = target: T3, soluble IL6R in human plasma (human, UniProt P08887 20-355, limits assumed); assay: human plasma potency assay: competition ELISA, inhibition of human IL6 binding to soluble IL6R
T3 sequence (looked up): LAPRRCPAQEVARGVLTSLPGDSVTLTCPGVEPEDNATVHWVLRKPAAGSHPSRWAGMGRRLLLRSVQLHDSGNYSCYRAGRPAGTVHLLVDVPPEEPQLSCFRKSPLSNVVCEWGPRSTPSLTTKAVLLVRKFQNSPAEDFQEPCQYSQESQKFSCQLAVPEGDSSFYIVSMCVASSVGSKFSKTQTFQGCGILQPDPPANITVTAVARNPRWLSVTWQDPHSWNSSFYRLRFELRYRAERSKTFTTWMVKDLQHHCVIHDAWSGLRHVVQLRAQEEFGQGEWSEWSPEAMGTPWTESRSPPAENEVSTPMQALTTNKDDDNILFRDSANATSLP
Method: All 5 Nanobodies and the parent Nanobody were also tested in a plasma potency assay. In this assay different concentrations of Nanobody are mixed with soluble IL6R containing plasma from either human or cynomolgus monkey and a fixed concentration of human IL6. After 1 hour of incubation the mixture is transferred to a Maxisorp plate coated with the anti-IL6R MAb BN-12 (Diaclone). The amount of IL6 bound was determined by subsequent addition of biotinylated anti-IL6 polyclonal antibody (R&D Systems) and streptavidin-HRP. TMB was used as substrate. Substrate conversion was measured at 450 nm.

- Inhibition of IL6-dependent proliferation of TF-1 cells (3H-thymidine incorporation), IC50 [1]: 3.5 nM
- Kd (human IL6R [2]): 0.56 nM
- koff (human IL6R [2]): 0.00031 s⁻¹
- kon (human IL6R [2]): 550000 M⁻¹ s⁻¹
- koff (human IL6R [3]): 0.00037 s⁻¹
- IC50 [4]: 0.11 nM
- IC50 [5]: 0.22 nM
B1: IL6R65PMP7G7 (VHH)
VHH: EVQLVESGGGLVQPGGSLRLSCAASGTTFKINIMAWYRQAPGKGRELVAGVITGGNTTYADSVKGRFTISRDNAKNTLYLQMNSLRPEDTAVYYCAFVTTNSDYDLGRDYWGQGTLVTVSS
notes: Also expressed in E. coli and purified via IMAC

- Inhibition of IL6-dependent proliferation of TF-1 cells (3H-thymidine incorporation), IC50 [1]: 6.2 nM
- Kd (human IL6R [2]): 0.95 nM
- koff (human IL6R [2]): 0.000333 s⁻¹
- kon (human IL6R [2]): 352000 M⁻¹ s⁻¹
- koff (human IL6R [3]): 0.00041 s⁻¹
- IC50 [4]: 0.14 nM
- IC50 [5]: 0.34 nM
B2: IL6R65PMP7G8 (VHH)
VHH: B1 VHH with T27S, K30R, I33V, T53N, G54D, N56S
notes: as for B1

— patent US20100292083A1 (Ablynx, published 2010)
